The results in this text go back to US20260125469A1 (Hoffmann-La Roche, published 2026).

Numbering of substitutions follows the chain as printed. Numbers in names are those of the source. Where two headings read alike, the source gives them in different places.

In assay [1] the target is human CD3 on cells (CD3ε) (human, UniProt P07766 23-207). The experiment in a line: cell-based or functional assay.
For assay [2], the target named is T1, Human CD3ε stalk-Fc(knob)-Avi/CD3δ stalk-Fc(hole) (human).
T1 construct: Heterodimer of CD3 delta and CD3 epsilon ectodomains fused to human Fc with knob-into-hole; also called human CD3ε/δ; CD3 antigen
The experiment in a line: SPR, TCB captured by anti-PG antibody, antigen as analyte, 25°C. The source says:
(§1) For affinity measurements, TCB molecules were captured on a C1 sensorchip (GE Healthcare) surface with immobilized anti-Fc(P329G) IgG (an antibody that specifically binds human IgG₁ Fc(P329G); “anti-PG antibody”—see WO 2017/072210, incorporated herein by reference). The experimental setup is schematically depicted in FIG. 3. Capture IgG was coupled to the sensorchip surface by direct immobilization of around 400 resonance units (RU) using the standard amine coupling kit (GE Healthcare Life Sciences).
(§2) Kinetic constants were derived using the Biacore T200 Evaluation Software (GE Healthcare Life Sciences), to fit rate equations for 1:1 Langmuir binding by numerical integration. The half-life (t_{1/2}) of the interaction was calculated using the formula t_{1/2}=ln2/koff.
To analyze the interaction to CD3, TCB molecules were captured for 240 s at 25 nM with a flow rate of 10 μl/min. Human and cynomolgus CD3F stalk-Fc(knob)-Avi/CD36-stalk-Fc(hole) were passed at a concentration of 0.14-100 nM with a flow rate of […] through the flow cells for 240 s. The dissociation was monitored for 800 s.

Assay [3] addresses T1, Human CD3ε stalk-Fc(knob)-Avi/CD3δ …. The experiment in a line: SPR on immobilized human CD3ε/δ after stress, relative to sample kept at -80°C pH 6. The procedure: (§3) In order to assess the effect of the deamidation site removal and its effect on the stability of the antibodies, the optimized anti-CD3 antibodies (in TCB format) were incubated for 14 days at 37° C., pH 7.4 and at 40° C., pH 6 and further analyzed by SPR for their binding capability to human CD3ε/δ. Samples stored at −80° C. pH 6 were used as reference. The reference samples and the samples stressed at 40° C. were in 20 mM His, 140 mM NaCl, pH 6.0, and the samples stressed at 37° C. in PBS, pH 7.4, all at a concentration of 1.0 mg/ml. After the stress period (14 days) samples in PBS were dialyzed back to 20 mM His, 140 mM NaCl, pH 6.0 for further analysis.
(§4) All SPR experiments were performed on a Biacore T200 instrument (GE Healthcare) at 25° C. with HBS-P+ (10 mM HEPES, 150 mM NaCl pH 7.4, 0.05% Surfactant P20) as running and dilution buffer. Biotinylated human CD3ε/δ (see Example 3, SEQ ID NOs 41 and 42) as well as biotinylated anti-huIgG (Capture Select, Thermo Scientific, #7103262100) were immobilized on a Series S Sensor Chip SA (GE Healthcare, #29104992), resulting in surface densities of at least 1000 resonance units (RU). Anti-CD3 antibodies with a concentration of 2 μg/ml were injected for 30 s at a flow rate of 5 μl/min, and dissociation was monitored for 120 s. The surface was regenerated by injecting 10 mM glycine pH 1.5 for 60 s. Bulk refractive index differences were corrected by subtracting blank injections and by subtracting the response obtained from a blank control flow cell. For evaluation, the binding response 5 seconds after injection end was taken. To normalize the binding signal, the CD3 binding was divided by the anti-huIgG response (the signal (RU) obtained upon capture of the CD3 antibody on the immobilized anti-huIgG antibody). The relative binding activity was calculated by referencing each temperature stressed sample to the corresponding, non-stressed sample.
The experiment was performed as described in Example 4, using the TCB molecules prepared in Example 7.

The target is the same in assay [4]. The experiment in a line: SPR, TCB captured by anti-PG antibody, antigen as analyte, 25°C.
Excerpt: as §1
(§5) To analyze the interaction to CD3, TCB molecules were captured for 80 s at 25 nM with a flow rate of 10 μl/min. […] The dissociation was monitored for 800 s.
as §2
The source holds these as a separate data set.

Assay [5] concerns the target T2, Cynomolgus CD3ε stalk-Fc(knob)-Avi/CD3δ stalk-Fc(hole) (cynomolgus).
T2 construct: also called cynomolgus CD3ε/δ
The assay is described as above.
Excerpt: as §1, §5, §2

Assay [6] addresses T1, Human CD3ε stalk-Fc(knob)-Avi/CD3δ …. The experiment in a line: SPR on immobilized human CD3ε/δ after stress, relative to sample kept at -80°C pH 6. The protocol:
as §3, §4
The source holds these as a separate data set.

Sequence of human CD3 on cells (CD3ε) (P07766 23-207 limits assumed): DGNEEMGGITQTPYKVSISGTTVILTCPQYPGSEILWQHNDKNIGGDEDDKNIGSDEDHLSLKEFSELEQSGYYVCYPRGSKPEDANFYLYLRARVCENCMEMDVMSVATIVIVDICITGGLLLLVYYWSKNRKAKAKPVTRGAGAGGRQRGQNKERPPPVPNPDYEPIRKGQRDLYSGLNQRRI

B1: CEACAM5-TCB with CD3orig as CD3 binder (bispecific antibody, human IgG1, kappa, L234A L235A)
heavy 1: not shown
heavy 2: QVQLVQSGAEVKKPGSSVKVSCKASGFNIKDTYMHWVRQAPGQGLEWMGRIDPANGNSKYVPKFQGRVTITADTSTSTAYMELSSLRSEDTAVYYCAPFGYYVSDYAMAYWGQGTLVTVSSASTKGPSVFPLAPSSKSTSGGTAALGCLVEDYFPEPVTVSWNSGALTSGVHTFPAVLQSSGLYSLSSVVTVPSSSLGTQTYICNVNHKPSNTKVDEKVEPKSCDKTHTCPPCPAPEAAGGPSVFLFPPKPKDTLMISRTPEVTCVVVDVSHEDPEVKFNWYVDGVEVHNAKTKPREEQYNSTYRVVSVLTVLHQDWLNGKEYKCKVSNKALGAPIEKTISKAKGQPREPQVCTLPPSRDELTKNQVSLSCAVKGFYPSDIAVEWESNGQPENNYKTTPPVLDSDGSFFLVSKLTVDKSRWQQGNVFSCSVMHEALHNHYTQKSLSLSP
light 1: EIVLTQSPATLSLSPGERATLSCRAGESVDIFGVGFLHWYQQKPGQAPRLLIYRASNRATGIPARFSGSGSGTDFTLTISSLEPEDFAVYYCQQTNEDPYTFGQGTKLEIKRTVAAPSVFIFPPSDRKLKSGTASVVCLLNNFYPREAKVQWKVDNALQSGNSQESVTEQDSKDSTYSLSSTLTLSKADYEKHKVYACEVTHQGLSSPVTKSFNRGEC
light 2: EVQLLESGGGLVQPGGSLRLSCAASGFTFSTYAMNWVRQAPGKGLEWVSRIRSKYNNYATYYADSVKGRFTISRDDSKNTLYLQMNSLRAEDTAVYYCVRHGNFGNSYVSWFAYWGQGTLVTVSSASVAAPSVFIFPPSDEQLKSGTASVVCLLNNFYPREAKVQWKVDNALQSGNSQESVTEQDSKDSTYSLSSTLTLSKADYEKHKVYACEVTHQGLSSPVTKSFNRGEC
notes: also called CD3orig in CEACAM5-TCB format
As for B1, in assay [1], the “EC50 24 h (pM), T-cell mediated lysis of CEACAM5-expressing LS180 tumor cells” value is 244 pM and the “EC50 48 h (pM), T-cell mediated lysis of CEACAM5-expressing LS180 tumor cells” value was 115 pM. In assay [2], this molecule displayed a Kd of 3.37 nM, a koff of 0.00281 s⁻¹, a kon of 851000 M⁻¹ s⁻¹ and a t1/2 of 4.1 min. Besides, in assay [3], the “binding activity [%] after 2 weeks at pH 6.0/40°C” value was found to be 95% and the “binding activity [%] after 2 weeks at pH 7.4/37°C” value turned out to be 66%.

B2: TYRP1-TCB with anti-CD3 antibody clone P035.093 (bispecific antibody, human IgG1, kappa, L234A L235A)
heavy 1: not shown
heavy 2: QVQLVQSGAEVKKPGASVKVSCKASGFNIKDYFLHWVRQAPGQGLEWMGWINPDNGNTVYAQKFQGRVTMTADTSTSTVYMELSSLRSEDTAVYYCTRRDYTYEKAALDYWGQGTLVTVSSASTKGPSVFPLAPSSKSTSGGTAALGCLVEDYFPEPVTVSWNSGALTSGVHTFPAVLQSSGLYSLSSVVTVPSSSLGTQTYICNVNHKPSNTKVDEKVEPKSCDKTHTCPPCPAPEAAGGPSVFLFPPKPKDTLMISRTPEVTCVVVDVSHEDPEVKFNWYVDGVEVHNAKTKPREEQYNSTYRVVSVLTVLHQDWLNGKEYKCKVSNKALGAPIEKTISKAKGQPREPQVCTLPPSRDELTKNQVSLSCAVKGFYPSDIAVEWESNGQPENNYKTTPPVLDSDGSFFLVSKLTVDKSRWQQGNVFSCSVMHEALHNHYTQKSLSLSP
light 1: DIQMTQSPSSLSASVGDRVTITCRASGNIYNYLAWYQQKPGKVPKLLIYDAKTLADGVPSRFSGSGSGTDFTLTISSLQPEDVATYYCQHFWSLPFTFGQGTKLEIKRTVAAPSVFIFPPSDRKLKSGTASVVCLLNNFYPREAKVQWKVDNALQSGNSQESVTEQDSKDSTYSLSSTLTLSKADYEKHKVYACEVTHQGLSSPVTKSFNRGEC
light 2: B1 light 2 with T31S, H101A, G102S, G105P, N106A, W111Y
notes: human IgG1 Fc, knob-into-hole, P329G L234A L235A; also called P035.093 in TCB format
As to B2, in assay [4], the affinity, expressed as Kd, was 0.41 nM; the koff is 0.00153 s⁻¹; the on-rate constant (kon) came out at 3.75e+06 M⁻¹ s⁻¹; the t1/2 came out at 7.55 min. Further, in assay [5], the affinity, expressed as Kd, was 0.21 nM; the koff turned out to be 0.00104 s⁻¹; the kon was determined as 4.89e+06 M⁻¹ s⁻¹; the t1/2 was determined as 11.1 min. For the same molecule, in assay [6], the “binding activity [%] after 2 weeks at pH 6.0/40°C” value turned out to be 97% and the “binding activity [%] after 2 weeks at pH 7.4/37°C” value turned out to be 95%.
